Data set [1] addresses Agrobacterium tumefaciens NDH-II (Agrobacterium fabrum (Agrobacterium tumefaciens), UniProt Q7CY19). In words: biochemical.
Procedure: The activity of the Agrobacterium tumefaciens NDH-II was assayed using membranes from an E. coli strain deficient in NDH-I and NDH-II (ndh::tet; nuoB::nptl).
The cells were then collected by centrifugation (15 min, 3200×g) and washed twice with 10 ml of solution containing 200 mM Tris-Cl, pH 8, 2.5 mM EDTA and 0.2 mM PMSF. They were then ruptured by passing them twice through a French press at the pressure of 16 000 psi.
The membrane fraction was recovered by centrifugation (30 min, 48 500×g) and resuspended in 200 μl of analysis buffer (50 mM of phosphate buffer, pH 7.5, and 150 mM NaCl).
The O2 consumption of the E. coli ANN0222 membranes was measured by means of a Clark electrode (DW2/2, Hansatech, King's Lynn, England). After addition of the purified enzyme, this method made it possible to determine its specific activity. […]
In order to measure only the membrane-linked respiratory oxidase activity, catalase (1000 U/ml) and superoxide dismutase (SOD) (500 U/ml) were added to the reaction mixture. […] The inhibition kinetics were determined in the presence of 200 μM of NADH or of 2 mM of NADPH.
Data set [2] has as its system E. coli ANN0222 membranes. In words: Enzymatic activity of purified NDH-II on bacterial membranes (O2 consumption, Clark electrode). It counts as biochemical. The note with it: 25° C.; for Km: physiological pH. How it is done: In the next experiment, the capacity of this enzyme to transport electrons to the respiratory chain of E. coli was determined.
Another data set has as its system Chlamydomonas thylakoids. Briefly: Photo-induced DNP-INT-sensitive oxygen uptake of Chlamydomonas thylakoids (electron transport from NAD(P)H to the photosynthetic chain). The class given is biochemical, Chlamydomonas reinhardtii. How it is done:
(§1) A culture of 200 ml of Chlamydomonas reinhardtii (wild-type 137c) was sampled in the exponential growth phase (approximately 5×10^6 cells·ml^−1), and then centrifuged (5 min, 1000×g). The cells were washed in 35 mM HEPES-NaOH buffer (pH 7.2), resuspended in 10 ml of lysis buffer (50 mM tricine-NaOH, pH 8, 10 mM NaCl, 5 mM MgCl2, 1% BSA, 1 mM benzamidine and 1 mM PMSF) and stored in the cold and in the dark for the following steps.
The suspension was passed through a French press twice, at 2000 psi. The lysate was first centrifuged (5 min, 4° C., 500×g) in order to remove the unlysed cells, and the thylakoid membranes were then pelleted at 10 000×g for 10 min and resuspended in 250 to 500 μl of analysis buffer (50 mM tricine-NaOH, pH 7.2, 10 mM NaCl and 5 mM MgCl2).
In order to quantify this effect of the Agrobacterium NDH-II on the electron flow from NAD(P)H to the acceptors of PSI, oxygen consumption measurements were carried out in the presence of methyl viologen (an acceptor of PSI), of DCMU (an inhibitor of PSII) and of an NADH (200 μM) or NADPH (2 mM) electron donor.
The Chlamydomonas thylakoids (50 μl, corresponding to 85 μg·ml^−1 of chlorophyll) are placed in a Clark electrode containing 900 μl of analysis buffer (50 mM tricine-NaOH, pH 7.2, 10 mM NaCl and 5 mM MgCl2, 25 μM DCMU, 50 μM methyl viologen, SOD (500 U·ml^−1), catalase (1000 U·ml^−1), 4 μM of myxothiazol and 800 μM of SHAM (salicylhydroxamic acid). The latter two compounds are added in order to inhibit respiratory O2 uptake.
Under these conditions, the fraction of the photo-induced oxygen uptake sensitive to DNP-INT (2-iodo-6-isopropyl-3-methyl-2′,4,4′-trinitrodiphenyl ether; 10 μM), an inhibitor of cytochrome b6f, is proportional to the electron transport between the NAD(P)H and the photosynthetic chain.

Data set [3] has as its system Chlamydomonas reinhardtii plastoquinones. In words: Plastoquinone reduction measured by chlorophyll fluorescence on thylakoid membranes. It counts as biochemical. The following applies: NDH-II 1.5 μg·ml^−1, 200 μM NADH, anaerobic. How it is done: The plastoquinone-reducing activity by the Agrobacterium NDH-II was analyzed by measuring chlorophyll fluorescence. In the presence of a weak nonactinic illumination, the measurement of chlorophyll fluorescence provides an indication of the plastoquinone redox state.
as §1
The suspension was passed through a French press twice, at 2000 psi. […]
The photosystem II fluorescence was measured using a modulated light fluorimeter (PAM 101-103, Walz, Effeltrich, Germany).
A nonactinic modulated light (650 nm, 1.6 kHz) was used to determine the level of chlorophyll fluorescence F0. The maximum level of the chlorophyll fluorescence Fm was measured under a saturating flash of 1 second (approximately 1000 μmol photons·m^−2·s^−1). […]

The test system of data set [4] is E. coli ANN0222 membranes. In words: Membrane NADH dehydrogenase activity of E. coli ANN0222 expressing Agtundh2 (O2 uptake). It counts as biochemical. How it is done: Two batches of E. coli ANN.0222 membrane fractions were prepared, from a culture of the control strain on LB medium and from a culture of the strain having incorporated the plasmid pSDN2Ag6H, cultured on LB medium in the presence of 0.1 mM IPTG. The cultures were carried out until an optical density of 1 at 600 nm was obtained. […] The cells were then ruptured by passing them through a French press twice, at 16 000 psi. The membrane fraction, collected by centrifugation (30 min, 4° C., 48,500×g), was taken up in 200 μl of buffer B (50 mM phosphate buffer, pH 7.5 and 150 mM NaCl).
The results are illustrated by FIG. 10B, which represents the O2 uptake, in the presence of NADH, of E. coli ANN0222 membranes prepared from the reference strain (control) and from the strain expressing Agtundh2.
To determine the catalytic efficiency of Agtundh2 expressed in E. coli, the specific activity was estimated from the amounts determined by Western blotting.
On the basis of the relative intensities of the signals obtained for the purified Agtundh2 protein and for the membrane fractions, the amount of Agtundh2 protein in the experiments illustrated by FIG. 10B was estimated at 0.6 μg protein. The maximum O2 uptakes under these conditions are thus estimated at 13.2/0.6=22 nmol O2 min^−1·μg^−1 protein, i.e. 44 nmol NADH min^−1·μg^−1 protein.

The next data set has as its system E. coli strain ANN.0222. In words: Complementation-growth test of NDH-deficient E. coli. The following applies: M9 + mannitol. It counts as cell-based. How it is done: The functionality of the Agtundh2 protein in vivo in a heterologous host was tested by determining its capacity to restore the growth of a mutant E. coli strain, ANN.0222, deficient in NDH-1 and in NDH-2. This strain grows normally on LB medium, but is incapable of growing on minimum medium M9 supplemented with mannitol as the sole carbon source.
The E. coli strain ANN.0222 was chemically transformed (CaCl2) with the plasmid pSDN2Ag6H. The transformants were selected on LB agar medium (supplemented with 1% tryptone, 0.5% of yeast extract and 0.5% NaCl, pH 7) containing ampicillin (100 μg/ml). The transformants and the strain of origin were cultured until the middle of the exponential phase at 37° C. in liquid LB medium containing ampicillin (100 μg/ml). The cells were rinsed with sterile M9 medium, supplemented with mannitol as the sole carbon source (1× M9 salts, 2×10^−3 M MgSO4, 10^−4 M CaCl2, 0.4% mannitol). The cells were then diluted in M9 medium/mannitol and inoculated on a solid M9/mannitol/agar medium containing ampicillin and various concentrations of IPTG. The Petri dishes were incubated at 37° C. for 2 days. As a control, the same cells were inoculated in parallel on dishes containing LB agar medium containing ampicillin and various concentrations of IPTG, and then incubated at 37° C. overnight. […]

Data set [5] can be described thus: Activity of wild-type and E201Q modified protein with NADH and NADPH. The class given is biochemical. The following applies: FIG. 12. How it is done:
The affinity of the modified protein for NADH and NADPH was determined.
The results are illustrated in FIG. 12.

Read-outs that look alike come from different tables or passages of the source.

`c1ccc2c(c1)[I+]c1ccccc1-2` [DPI, diphenylene iodonium]: in data set [1], the IC50 stood at 10 µM.

B1: Agrobacterium NDH-II: type II NAD(P)H dehydrogenase from Agrobacterium tumefaciens, SEQ ID NO: 2, purified with 6His tag (protein, listed as Agrobacterium tumefaciens)
chain: MQEHHVVVVGGGFGGLQLVHGLEGAPVRITLIDRRNHHLFQPLLYQVATTALATSEIAWPIRHLYRDRKEVTTLLAEVTGVDRAARTVQLNSGQVIGFDTLVLATGARHAYFGHDEWERSAPGLKTLEDATTIRRRLLLAFERAELATSEEERQALLTFVIIGAGPTGVEMAGMIAELAHRALPAEFRNVDTRKTRVLLVEAGPRVLPVFTEDLSTYAKEALEKLGVEVLLGTPVTACTDEGVTVGETYYPCRTVVWAAGVQASPAAKWLNAAGDRAGRVIVGPQLHLEDDADIFVIGDTAAVNQENGKPVPGIAPAAKQQGAYVAKVIKARLEGKPIPAPFRYSHQGNLATIGKRAAVIDFGRFKLKGVLAWWIWGLAHIYFLIGTRSRLAVAWSWLWIYLSGQHSARLITQKETLKDEA
modifications: 6His tag
Regarding B1, the Km in data set [2] (read-out: Km for NADH) came to 10 µM; in data set [2] (read-out: Km for NADPH), 50 µM. Moreover, the “maximum activity (Vmax)” value in data set [2] (purified enzyme plus E. coli ANN0222 membranes, pH 7.5) is reported as 5 μmol O2·min^−1·mg^−1 protein. Moreover, in the data set with Chlamydomonas thylakoids (1.5 μg purified NDH-II added, NADH 200 μM, without enzyme 21), the “electron transport, NADH as donor” value is given as 67 nmol·min^−1·mg^−1 chlorophyll. Besides, the “electron transport, NADPH as donor” value with Chlamydomonas thylakoids (1.5 μg purified NDH-II added, NADPH 2 mM, without enzyme 20) was 45 nmol·min^−1·mg^−1 chlorophyll. In addition, the “stimulation factor of electron transport, NADH” value in the data set on Chlamydomonas thylakoids (NADH to thylakoid plastoquinones) was “approximately 3”. Also, the “stimulation factor of electron transport, NADPH” value in the data set on Chlamydomonas thylakoids (NADPH to thylakoid plastoquinones) is recorded as “approximately 2”. The “increase in chlorophyll fluorescence (plastoquinone reduction) versus natural enzyme alone” value in data set [3] is “more rapid and more intense”. In addition, the “specific activity as NADH” value in data set [4] (Agtundh2 expressed in E. coli membranes) is recorded as 44 nmol NADH min^−1·μg^−1 protein. Besides, the “maximum O2 uptake (specific activity)” value in data set [4] (Agtundh2 expressed in E. coli membranes, protein amount estimated by Western blotting at 0.6 μg) is given as 22 nmol O2 min^−1·μg^−1 protein. In addition, the “O2 uptake of membranes on addition of NADH” value in data set [4] (strain transformed with pSDN2Ag6H, 0.1 mM IPTG, control strain none detected) is listed as “considerable O2 uptake”. The entries for the “growth on minimal medium” value in the data set on E. coli strain ANN.0222 (absence of IPTG) and in the data set on E. coli strain ANN.0222 (induction with 0.1 mM IPTG) were “partial complementation” and “restored”, respectively. Besides, the “activity with 200 μM NADH compared with 200 μM NADPH” value in data set [5] is on record as “clearly greater activity with 200 μM NADH”.

For orientation: IC50 means the midpoint of a concentration-inhibition curve. As a reminder, the Km is the concentration of substrate that gives half-maximal velocity.

The values are drawn from US7919292B2, “Producing hydrogen by heterologous expression of a type II NAD (P)H dehydrogenase in Chlamydomonas” (Commissariat a l'Energie Atomique, priority 2004, dated 2011).
